The source of these data is PMC3714855.

Values joined by “and” are separate entries in the source; they are usually repeats but may differ in a detail not shown here. Equal values may be shown once.

The target in experiment [1] is GluA1(E809W) with a C-terminal GFP tag (rat). The experiment is described as follows: SEC.
The target of experiment [2] is GluA1(L795W) with a C-terminal GFP tag (rat). Description: SEC.
Experiment [3] concerns the target GluA2(Q)(A806W) with a C-terminal GFP tag (rat). The experiment is described as follows: SEC.
Experiment [4] deals with GluA2(Q)(E813W) with a C-terminal GFP tag (rat). Description: SEC.
Experiment [5] deals with GluA2(Q)(G802W) with a C-terminal GFP tag (rat). Description: SEC.
For experiment [6], the target named is GluA2(Q)(L811W) with a C-terminal GFP tag (rat). The experiment is described as follows: SEC.
Experiment [7] addresses GluA2(Q)(V795W) with a C-terminal GFP tag (rat). Description: SEC.
Experiment [8] concerns the target GluA2(R)(E813W) (rat). The experiment is described as follows: native gel or EMSA.
Experiment [9] addresses GluA2(R)(G802W) (rat). The experiment is described as follows: native gel or EMSA.
The target of experiment [10] is GluA2(R)(L811W) (rat). The experiment is described as follows: native gel or EMSA.
Experiment [11] has as its target GluA2(R)(V795W) (rat). Description: native gel or EMSA.
Experiment [12] deals with GluA2(R)-ΔM4, untagged (rat). Description: native gel or EMSA.
Experiment [13] deals with HA-GluA2(R)-ΔM4 (rat). Description: native gel or EMSA.
The target of experiment [14] is HA-tagged wild-type GluA2(R) (rat). The experiment is described as follows: native gel or EMSA.
Experiment [15] addresses wild-type GluA1 with a C-terminal GFP tag (rat). Description: SEC.
In experiment [16] the target is wild-type GluA2(Q) with a C-terminal GFP tag (rat). Description: SEC.
Experiment [17] deals with wild-type GluA2(R), untagged (rat). Description: native gel or EMSA.

For “GluA1(E809W) with a C-terminal GFP tag (receptor)”, the stoichiometry N in [1] turned out to be 2.

In [2], “GluA1(L795W) with a C-terminal GFP tag (receptor)” registered a stoichiometry N of 2.

In turn, “GluA2(Q)(A806W) with a C-terminal GFP tag (receptor)” had a stoichiometry N in experiment [3] of 2.

Substance “GluA2(Q)(E813W) with a C-terminal GFP tag (receptor)” gave a stoichiometry N in [4] of 2.

In experiment [5], “GluA2(Q)(G802W) with a C-terminal GFP tag (receptor)” showed a stoichiometry N of 2.

In experiment [6], “GluA2(Q)(L811W) with a C-terminal GFP tag (receptor)” registered a stoichiometry N of 4.

Turning to “GluA2(Q)(V795W) with a C-terminal GFP tag (receptor)”, the stoichiometry N in experiment [7] was found to be 2.

In the case of GluA2(R)(E813W) (receptor), the stoichiometry N in experiment [8] came to 2.

Take GluA2(R)(G802W) (receptor): the stoichiometry N in experiment [9] amounted to 2.

As for GluA2(R)(L811W) (receptor), the stoichiometry N in experiment [10] was 4 and 2.

With GluA2(R)(V795W) (receptor), the stoichiometry N in experiment [11] amounted to 2.

“GluA2(R)-ΔM4, untagged (domain or fragment)” had a stoichiometry N in [12] of 2.

Substance HA-GluA2(R)-ΔM4 (domain or fragment) returned a stoichiometry N in experiment [13] of 2.

As for HA-tagged wild-type GluA2(R) (receptor), the stoichiometry N in experiment [14] was 4 and 2.

Turning to “wild-type GluA1 with a C-terminal GFP tag (receptor)”, the stoichiometry N in [15] amounted to 4.

“wild-type GluA2(Q) with a C-terminal GFP tag (receptor)” had a stoichiometry N in experiment [16] of 4.

For wild-type GluA2(R), untagged (receptor), the stoichiometry N in experiment [17] was 4 and 2.
